Experimental data reported in the supplement of paper PMC9170038.

System: MS2 coat protein
Experiment: apparent KD of MS2 coat protein; designed switch direction (-1 OFF switch, 1 ON switch): -1; higher = weaker reporter binding
Method in brief: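 For each design, the apparent KD is the median over clusters of curves fitted to normalised cluster fluorescence. Clusters held RNA switches with common flanks, transcribed on Illumina chips by stalled E. coli RNA polymerase. These were titrated with SNAP-549-labelled MS2 coat protein, doubling from 0.7 or 1.5 nM to 3 µM, without input, with 200 uM small-molecule ligand, or with an oligonucleotide input.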

[1] = input ligand: microRNA oligo, concentration not stated
[2] = Eterna round: R95, input ligand: FMN 200 uM
[3] = Eterna round: R95, input ligand: microRNA oligo, concentration not stated
[4] = Eterna round: R95, input ligand: none

| Sequence | apparent KD of MS2 coat protein (input ligand: FMN 200 uM) | apparent KD of MS2 coat protein [1] | apparent KD of MS2 coat protein (input ligand: none) | apparent KD of MS2 coat protein [2] | apparent KD of MS2 coat protein [3] | apparent KD of MS2 coat protein [4] |
| --- | --- | --- | --- | --- | --- | --- |
| GGAUAAAACUGAGGAUAUACGCACCACUAACGAGUAGAAGGCAGACAUGAGGAUCACCCAUGUGAGUUCUCAAUAAGAAACACG [Prohibition 66 - Jieux - Exclusion NG 1] (Eterna round: R96, puzzle: Exclusion NG 1) | 192 nM | 88.9 nM | 85.1 nM | – | – | – |
| UUUCGGUCAGGAUAUCCCGUACUACUAGCCGCGACUUACGAGGAGAAGGGACAUGAGGAUCACCCAUGUGCGCU [Colors] (Eterna round: R97, puzzle: Exclusion 4) | 16.2 nM | – | 14.7 nM | – | – | – |
| ACGCCGCAAGGAUAUACUUGCGGUGAUGUUCGAGUUCUUCUACUUGAGGAUCACCCAAGUAGAAGGUGCGAUGG [jl-ex2.4.61 ViennaUCT mod] (Eterna round: R97, puzzle: Exclusion 2) | 13.7 nM | – | 13.8 nM | – | – | – |
| UGUAUUAUAGGAUAUCACAACCUGGACAUGAGGAUCACCCAUGUGGUUGCAUGCUGUCGAUGAGAAGGAUAGGGCG [Eternabot (L1) Solution 43] (Eterna round: R97, puzzle: Exclusion 5) | 22.8 nM | – | 21.9 nM | – | – | – |
| UAAUGUAUAUAGGAUAUCUAGCUGGAAACAGCUAGAGAAGGAUGUACAUGAGGAUCACCCAUGUAAAUCAGUGA [Ex6/14-B1] (Eterna round: R97, puzzle: Exclusion 6) | 239 nM | – | 55.4 nM | – | – | – |
| AGACACUUAGGAUAUCAGGCAAUGCACAUGAGGAUCACCCAUGUGGUCUUGGUCCGGGACUGAGAAGGAAGAGUCC [EX5 B.10] (Eterna round: R97, puzzle: Exclusion 5) | 20.1 nM | – | 19 nM | – | – | – |
| GUGUGCAGAGGAUAUACAGAGGAAAAUAAUAAAUAAUAUUGACAUGAGGAUCACCCAUGUAGAAGGCUGAGUGU [Excluse me!! 25 - Jieux - Exclusion 2] (puzzle: Exclusion 2) | – | – | – | 38.3 nM | 37.4 nM | 39.7 nM |
| GGUUGGCGAGGAUAUACAUGAGGAUCACCCAUGUGGUCCUGUGGCUAAAAAAACCUUUGUAGAAGGCGCGGGUC [salish99_ex3_r4_030] (Eterna round: R97, puzzle: Exclusion 3) | 173 nM | – | 149 nM | – | – | – |
| UGUUGUUACGCAGGAUAUGCAUGAGGAUCACCCAUGCAACCACAUUUAACAUGAGGAUCACCCAUGUAGAAGGGCGGGUUAACA [pwkr exNG2 2xF5 1xFMN.1] (Eterna round: R96, puzzle: Exclusion NG 2) | 77.5 nM | 20.4 nM | 28 nM | – | – | – |
| GAGCCAUCGUGAGAUGGCUAAAUUACAUGAGGAUCACCCAUGUAGGAUAUCGAUUGCUUUGCAGUCGAGAAGGACAUGUUUAAU [JL ENG3 3.99] (Eterna round: R96, puzzle: Exclusion NG 3) | 67.5 nM | 27.8 nM | 32.9 nM | – | – | – |
| UCGAUGUGAGGAUAUAUAUGCAGUAGUCCUUAUGUUUUAUAACUUGAGGAUCACCCAAGUAGAAGGCGCGACGU [JR_Ex2_Sub060] (Eterna round: R97, puzzle: Exclusion 2) | 49.2 nM | – | 39.5 nM | – | – | – |
| ACAUGAGGAUCACCCAUGUGAAAACAAUGGCUGACUUUGAGAUAGGAUAUUGGUGCAUAUCAAACCAAGAAGGGUCAUUACUGG [Deportation 92 - Jieux - Exclusion NG 3] (Eterna round: R96, puzzle: Exclusion NG 3) | 37.5 nM | 32.8 nM | 48.2 nM | – | – | – |
| AGAUCUAGGACAGGAUAUACGGAUGUCUUCAUCGAAGAUGAAGACAUCACAUGAGGAUCACCCAUGUAGAAGGGUCCUAGAUCA [Omei Exc(NG) 2A] (Eterna round: R96, puzzle: Exclusion NG 2) | 12.3 nM | 10.9 nM | 14.3 nM | – | – | – |
| UGCAGACGAGGAUAUAAACGAUAUAACAUGAGGAUCACCCAUGUACGAUCGAAUGAUCGUUUAGAAGGCGUCUGCA [E5/10-A1] (Eterna round: R97, puzzle: Exclusion 5) | 16.6 nM | – | 15.7 nM | – | – | – |
| GUGGCACAUGAGGAUCACCCAUGUCAGGAUAUCGCGUGGUUUUUUUCGGCCGCGCGCGCGAGAAGGGACGUCUU (Eterna round: R96, puzzle: Exclusion 1) | 26.8 nM | 22.2 nM | 30.9 nM | – | – | – |
| UCUGGUCGGAAGGAUAUGGUCGGGUCAAAUCGGCCAGAAGGUCUGACAUGAGGAUCACCCAUGUGAGUCCAAAG [Esceus] (puzzle: Exclusion 6) | – | – | – | 51.7 nM | 21.6 nM | 20.8 nM |
| UUUUUAUAUGAAGGAUAUACUUAACAUGAGGAUCACCCAUGUGGUGUUGUGAGUGAGUGAGUUUAGUAGAAGGUCAAUUAGUAU [JMF's solution 101] (Eterna round: R96, puzzle: Exclusion NG 2) | 1110 nM | 253 nM | 295 nM | – | – | – |

| Sequence | apparent KD of MS2 coat protein (input ligand: FMN 200 uM) | apparent KD of MS2 coat protein [1] | apparent KD of MS2 coat protein (input ligand: none) | apparent KD of MS2 coat protein [2] | apparent KD of MS2 coat protein [3] | apparent KD of MS2 coat protein [4] |
| --- | --- | --- | --- | --- | --- | --- |
| AAGAAACAUGAGGAUCACCCAUGUGAGGAUAUGAUGAAGAAAAGAAAAGAAAGAAGAUUCAGAAGGCACAAAGG [salish99-ex1_r3_055] (puzzle: Exclusion 1) | – | – | – | 113 nM | 48.9 nM | 80.5 nM |
| AGAAAGGAAGGAUAUACAAGAAAGCCGGGCAACGUCUCAGAACAUGAGGAUCACCCAUGUAGAAGGUCCAGGAA [Tisoiste] (puzzle: Exclusion 2) | – | – | – | 92.3 nM | 32.6 nM | 32.8 nM |
| ACUGUUGCAGGAUAUAUGGUGCUAGACAUGAGGAUCACCCAUGUAGGCCUUGUCUAGCAGGUAGAAGGGCACCCAC [Eternabot (L1) Solution 94] (Eterna round: R97, puzzle: Exclusion 5) | 503 nM | – | 224 nM | – | – | – |
| AGUAACCGUCACGAAAGUGAUGGUUACACAAGCAUAUGUACAUGAGGAUCACCCAUGUCCUCAAUUGCUCGUCUUAU [Sensor 3 - 54] (puzzle: Sensor v3, turn-off variant 2) | – | – | – | 167 nM | 250 nM | 226 nM |
| GAAAAGGUAGGAUAUACGAAAAAAAAGGAUAGAAAAAAAACACAUGAGGAUCACCCAUGUAGAAGGACCAAAAG [salish99_ex2_r3_066] (puzzle: Exclusion 2) | – | – | – | 35.2 nM | 25.5 nM | 23.3 nM |
| UGCUACAUGAGGAUCACCCAUGUAAUGUGGGAAUCGUUAGGACAGGAUAUGAUUGUAUUGUUUUUUCAGAAGGGUCAUUACUUU [JR_ExcNG3_Sub012] (Eterna round: R96, puzzle: Exclusion NG 3) | – | 212 nM | – | – | – | – |
| CCGGUUGGCGCAGGAUAUACAUGAGGAUCACCCAUGUUCAUGAGCAUCAGCCAUGAGUUUUUGUUGUAGAAGGGUGGCCCGGCC (Eterna round: R96, puzzle: Exclusion NG 2) | 19.6 nM | 15.6 nM | 23.5 nM | – | – | – |
| CUGAGCAGACGGAGAUCCAACAUGAGGAUCACCCAUGUCUCAAAAGCUUUUUGCUCAUCUUAUCCUCCUCUGUUCUC [Edcesobi] (puzzle: Sensor v3, turn-off variant 1) | – | – | – | 20.5 nM | 336 nM | 17.9 nM |
| GAGACGAAAGGAUAUACAUGAGGAUCACCCAUGUAUGAAACAUGAGAAGACACCGCUGGUAGAAGGUUUGGAAA [Eternabot (Original) Solution 46] (Eterna round: R97, puzzle: Exclusion 3) | 26.8 nM | – | 23.2 nM | – | – | – |
| UCUCGUUGGCAAGGAUAUCCUACAUUGUUCUGGCCCGGGCAUGCUACAUGAGGAUCACCCAUGUGGGAGAAGGUGCGUCAUUGC [Design 23] (Eterna round: R96, puzzle: Exclusion NG 2) | 146 nM | 77.4 nM | 140 nM | – | – | – |
| UUAACAUGCUGGUGAUCAUACAUGAGGAUCACCCAUGUAACAAGCUUUUUGUUCGUCUUAUAAUUUAAGAUCACCAG [Stov1/7-B1] (Eterna round: R97, puzzle: Sensor, turn-off variant 1) | 21.6 nM | – | 20.3 nM | – | – | – |
| AAAUACAAGUAAAGAUCCUACAUGAGGAUCACCCAUGUGCUCGUCUUGUAAAGUACUAUCACGAAAGUGAUAGUACU [Mat - Sensor v3 - turn-off var 1 - Eli Mod - D87] (puzzle: Sensor v3, turn-off variant 1) | – | – | – | 45.3 nM | 29.7 nM | 47.7 nM |
| CCGAUGUCAGGAUAUAGCGGUCGCUGCCACGGUGGAGUCUGCUAGAAGGGACAUGAGGAUCACCCAUGUCGAAC [Eternabot (Original) Solution 49] (Eterna round: R97, puzzle: Exclusion 4) | 57.7 nM | – | 23.4 nM | – | – | – |
| UAUUAGCAAGCAAAUGGGUACAUGAGGAUCACCCAUGUGCUCGUCUUAUAAGGUACUGUGACGAAAGUCCCGGUACC [mod--Eli6] (Eterna round: R97, puzzle: Sensor, turn-off variant 1) | 28.9 nM | – | 21.9 nM | – | – | – |
| GACCAGGUAGGAUAUGCAGGGUAGGACUUGAGGAUCACCCAAGUGGCCAAAGUGCGUCCCGCAGAAGGGCCGAACC [Teararatbi] (Eterna round: R97, puzzle: Exclusion 5) | 356 nM | – | 386 nM | – | – | – |
| GGUGCACAUGAGGAUCACCCAUGUCAGGAUAUGUUACCACGUUACGAUCGAGUGACGAGCAGAAGGGACUGCAU [Eternabot (L2) Solution 68] (Eterna round: R97, puzzle: Exclusion 1) | 39.4 nM | – | 29.6 nM | – | – | – |
